Measurements as given in patent publication US20260083749A1, “ANTI-CD123 IMMUNOCONJUGATES FOR THE TREATMENT OF ACUTE MYELOID LEUKEMIA” (ImmunoGen, Inc., priority 2024, published 2026).

Assays:
[1] = tested on: AML patients; details: published for other AML therapies; cited from earlier work
[2] = tested on: patients with R/R AML; assay: Phase 1/2 trial of pivekimab sunirine monotherapy Q3W: anti-leukemia responses; type: in vivo, human; details: for Median time to first CCR (CR/CRh/CRi): range
Excerpt: (§1) Patients with AML were enrolled into a phase 1/2 clinical trial of pivekimab sunirine. Key inclusion and exclusion criteria were as follows.
• Patients ≥18 years old • R/R AML • Confirmation of CD123 positivity on flow cytometry or immunohistochemistry (IHC). Patients who received prior CD123-targeting agents were allowed as long as the blasts still had detectable CD123 expression. • Eastern Cooperative Oncology Group (ECOG) performance status ≤1. […] Patients with a PCHM were eligible as long as no current therapy was still required for the second malignancy (e.g., MDS, CMML). Patients with a nonhematologic prior malignancy were in remission from the prior malignancy.
(§2) Patients with R/R AML (n=68) were treated with pivekimab sunirine once every 3 weeks (Q3W; on day 1 of a 3-week cycle).
(§3) The trial included a dose-escalation phase and a dose-expansion phase. All patients in both phases received intravenous doses of pivekimab sunirine on day 1 of a 21-day cycle as a <30-minute outpatient infusion. Lyophilized pivekimab sunirine was reconstituted using […] of water for injection. Planned treatment consisted of 2 cycles (6 weeks). Additional cycles, up to 10 total, were administered for patients deriving benefit from this regimen. CNS prophylactic intrathecal chemotherapy was administered. Patients received 8 mg dexamethasone on the day before any pivekimab sunirine dose. Patients also received 25-50 mg diphenhydramine, 325-650 mg acetaminophen or paracetamol, and 8 mg dexamethasone before each pivekimab sunirine infusion.
(§4) In the dose-escalation phase, patients received doses of pivekimab sunirine starting at 0.015 mg/kg with five escalations (n=38): 0.015 mg/kg (n=3), 0.045 mg/kg (n=9), 0.09 mg/kg (n=12), […] (n=7), 0.3 mg/kg (n=5), and 0.45 mg/kg (n=2).
Anti-leukemia responses were assessed per International Working Group (IWG) criteria 2003 (Cheson B D, et al. Revised recommendations of the International Working Group for Diagnosis, Standardization of Response Criteria, Treatment Outcomes, and Reporting Standards for Therapeutic Trials in Acute Myeloid Leukemia. J Clin Oncol 2003; 21(24): 4642-9) and European LeukemiaNet (ELN) response criteria 2017 (Dohner H, et al. Diagnosis and management of AML in adults: 2017 ELN recommendations from an international expert panel. Blood 2017; 129(4): 424-47) as composite complete remission (CCR) rate (defined as CR without minimal residual disease [CRMRD−]+CR+CRh+CR with incomplete recovery CRi]). Overall response rate (ORR) was defined as CRMRD−+CR+CRh+CRi+morphologic leukemia-free state (MLFS) +partial response (PR). Duration of overall response (DOR) was also evaluated.
Response assessments were performed in bone marrow aspirates (BMAs) for differential assessments taken on Cycle 1, Day 21±7 days. Subsequent BMAs were performed approximately every 1 to 2 cycles as clinically indicated, and at the 30-Day Follow-up visit. Data was also collected in the event BMAs were performed more frequently. No repeat bone marrow was necessary if lack of response or PD could be unequivocally diagnosed from peripheral blood tests or if the bone marrow test was considered noncontributory at any time point.

[3] = tested on: AML xenografts; details: background statement; cited from earlier work
[4] = tested on: normal marrow progenitors; details: background statement; cited from earlier work
[5] = tested on: patients with R/R AML; assay: Phase 1/2 trial of pivekimab sunirine monotherapy Q3W: safety (TEAEs, SAEs, DLTs); type: in vivo, human
Experimental: as §1, §2, §3
Following preparation, IMGN632 (or pivekimab sunirine (pvek)) was administered by IV syringe pump. Overall length of infusion was varied depending on dose and patient tolerability. Initially, the study drug was administered at a rate of 0.165 mg/min ([…]); and, after 30 minutes, if well tolerated, the rate was increased to 0.33 mg/min. Subsequent infusions were delivered at the highest tolerated rate. Before and following infusion, the line was flushed with 5% dextrose to ensure delivery of the full dose. Patients were carefully observed during each infusion and vital signs were monitored. Patients remained in the clinic under observation for 4 hours after the first infusion and for at least 1 hour after each subsequent infusion.
as §4
Based on nonclinical pharmacology, clinical safety, anti-leukemia activity, PK, and PD assessments during the dose-escalation phase, two cohorts were established for the dose expansion phase. • Cohort 1: Patients with relapsed AML received 0.045 mg/kg (escalation dose level 2) Q3W (n=20). • Cohort 2: Patients with relapsed or refractory (to non-intense therapies) AML received 0.09 mg/kg (escalation dose level 3) Q3W (n=10).
Safety was assessed by treatment-emergent adverse events (TEAEs), serious adverse events (SAEs), and dose-limiting toxicities (DLTs). The median duration of treatment in participants who received […] pivekimab sunirine Q3W (n=29) was 9 weeks (range, 3-110).

[6] = tested on: patients with R/R AML; assay: as above; type: in vivo, human; details: N= 3/91; dose levels four- to ten-fold higher per cycle than the RP2D
[7] = RP2D, prior intensive therapy, n= 5/22
[8] = RP2D, prior venetoclax exposure, n= 2/14

CCc1nc(C(N)=O)c(Nc2ccc(N3CCC(N4CCN(C)CC4)CC3)c(OC)c2)nc1NC1CCOCC1 [gilteritinib]
Incidence of febrile neutropenia, published [1]: 46%

N#Cc1ccnc(N2C(=O)CC[C@H]2C(=O)N(c2cncc(F)c2)[C@H](C(=O)NC2CC(F)(F)C2)c2ccccc2Cl)c1 [ivosidenib]
Incidence of febrile neutropenia, published [1]: 29%

B1: pivekimab sunirine (conjugate, chains of the INN, looked up)
VH: QVQLVQSGAEVKKPGASVKVSCKASGYIFTSSIMHWVRQAPGQGLEWIGYIKPYNDGTKYNEKFKGRATLTSDRSTSTAYMELSSLRSEDTAVYYCAREGGNDYYDTMDYWGQGTLVTVSS
VL: EIQMTQSPSSLSASVGDRVTITCRASQDINSYLSWFQQKPGKAPKTLIYRVNRLVDGVPSRFSGSGSGNDYTLTISSLQPEDFATYYCLQYDAFPYTFGQGTKVEIK
modifications: sunirine payload (DNA-alkylating drug conjugate)
Best overall response CR, % ([2]; All Participants (n = 68)): (3) % | Best overall response CR, No. ([2]; All Participants (n = 68)): 2 No. | Best overall response CRh, % ([2]; All Participants (n = 68)): (3) % | Best overall response CRh, No. ([2]; All Participants (n = 68)): 2 No. | Best overall response CRi, % ([2]; All Participants (n = 68)): (6) % | Best overall response CRi, No. ([2]; All Participants (n = 68)): 4 No. | Best overall response MLFS, % ([2]; All Participants (n = 68)): (3) % | Best overall response MLFS, No. ([2]; All Participants (n = 68)): 2 No. | Best overall response PD, % ([2]; All Participants (n = 68)): (24) % | Best overall response PD, No. ([2]; All Participants (n = 68)): 16 No. | Best overall response PR, % ([2]; All Participants (n = 68)): (2) % | Best overall response PR, No. ([2]; All Participants (n = 68)): 1 No. | Best overall response SD, % ([2]; All Participants (n = 68)): (52) % | Best overall response SD, No. ([2]; All Participants (n = 68)): 35 No. | CCR rate (CR + CRh + CRi), % ([2]; All Participants (n = 68)): (12) % | CCR rate (CR + CRh + CRi), No. ([2]; All Participants (n = 68)): 8 No. | Median duration of CR ([2]; All Participants (n = 68)): 2.2 mo | Median duration of remission ([2]; All Participants (n = 68)): 2.0 mo | ORR (CR + CRh + CRi + MLFS + PR), No. ([2]; All Participants (n = 68)): 11 No. | Anti-leukemia activity versus CD123 expression ([2]; FIG. 3): anti-leukemia activity regardless of CD123 expression | ORR ([2]; RP2D, de novo (nonsecondary) AML, n= 6/18): 33% | CCR ([2]; RP2D, prior HSCT, n= 3/9): 33% | ORR ([2]; RP2D, prior HSCT, n= 3/9): 33% | CCR [2, 7]: 23% | ORR [2, 7]: 23% | CCR [2, 8]: 14% | ORR [2, 8]: 14% | CCR ([2]; RP2D, two prior lines, n= 3/15): 20% | ORR ([2]; RP2D, two prior lines, n= 4/15): 27% | CCR ([2]; RP2D, venetoclax-naive, n= 3/15): 20% | ORR ([2]; RP2D, venetoclax-naive, n= 4/15): 27% | Median duration of CCR (CR/CRh/CRi) ([2]; RP2D, 95% CI 1.64-not estimable): 2.27 months | Median time to first CCR (CR/CRh/CRi) ([2]; RP2D, 0.79-3.61): 2.04 months | Participants with decrease in bone marrow blasts ([2]; all dose levels and cohorts, n= 31/68): 46% | Median duration of CCR (CR/CRh/CRi) ([2]; all schedule A doses, 95% CI 1.02-3.55): 2.22 months | Median time to first CCR (CR/CRh/CRi) ([2]; all schedule A doses, 0.46-4.37): 1.76 months | Participants with >100% increase in BM blasts ([2]; cohort 1 and cohort 2 R/R AML, FIG. 1): 11 participants | Individual responses in participants with FLT3-ITD mutations ([2]; in vivo): ¼ | Individual responses in participants with IDH1 mutations ([2]; in vivo): ⅓ | Antitumor activity in AML xenografts [3]: potent antitumor activity | Toxicity in normal marrow progenitors versus other DNA-targeting payloads [4]: less toxicity in normal marrow progenitors | Prolonged neutropenia (grade 3) considered related to pivekimab sunirine (DLT) ([5]; 0.3 mg/kg after 2 cycles): one | 30-day mortality rate ([5]; 2 deaths due to disease progression): 7% | Maximum tolerated dose (MTD) ([5]; 30-fold dose escalation, 0.015-[…] Q3W): no maximum tolerated dose (MTD) defined | Incidence of febrile neutropenia ([5]; all schedule A participants): 35% | Reversible VOD possibly related to pivekimab sunirine (DLT) ([5]; grade 3, 0.18 mg/kg after 2 cycles, grade 4, […] during cycle 1): two | Grade 4 IRRs ([5]; in vivo): no grade 4 IRRs occurred | IRRs ([5]; mostly tachycardia and/or chills with the first dose, primarily grade 1-2): 31% | Participants who experienced DLTs ([5]; of the 68 participants, all doses): Three | TEAEs leading to treatment discontinuation ([5]; seven of 68 participants): 10% | Reversible VOD [6]: 3%
